We go through two molecules from PMC9864931 (Vaccines, 2022).

The target of assay [1] is E. coli-produced Wuhan-Hu1 RBD (receptor binding domain of the SARS-CoV-2 spike protein, a.a. 319-542) (SARS-CoV-2 (Wuhan-Hu1), UniProt P0DTC2). The experiment in a line: BLI. Conditions: both partners purified.
Assay [2] addresses mammalian cell-expressed Wuhan-Hu1 RBD reference standard (SARS-CoV-2 (Wuhan-Hu1), UniProt P0DTC2). In words: BLI. The note with it: both partners purified.

B1: mAb WRAIR-2173 (antibody, V domains shown)
VH: QVQLQESGPGLVKPSETLSLTCSVSGDSISSSDYSWGWIRQPPGKGLEWIGTIYYIKNTYYNPSLRSRVTLSVDTSKNLFSLKLSSVTAADTAVYYCARERPPFDVVVVPAARPYNWFDPWGLGTLVIVSS
VL: QSVLMQPPSVSGAPGQRVTISCTGSSSNIGAGYDVHWYQQLPGTAPKLLIYGNNNRPSGVPDRFSGSKSGTSASLAITGLQADDEADYYCQSYDSSLSGSKVFGGGTKLTVL
With B1, the binding result in assay [1] is reported as “binds”.

B2: mAb WRAIR-2125 (antibody, V domains shown)
VH: EVQLVESGGGVVQPGRSLRLSCAASGFTFSSYGMHWVRQAPGKGLEWVAVISYDGSNKYYADSVKGRFTISRDNSKNTLSLQMNSLRPEDTAVYYCAKDSPYYYDSSGYYPGYFQDWGQGSLVTVSS
VL: DIQMTQSPSSLSASIGDRVTITCRASQTISDYLNWYQQKPGKAPNLLIYAASTLQSGVPSRFSGSGSGTDFTLTISSLQPEDFATYYCQQSYITPRTFGQGTKVEIK
Take B2: the binding result in assay [1] and in assay [2] was “binds” throughout.
